In patent US20180036445A1:
One block for each substance: values may come before it.

Experiments:
[1] = molecular target: Fab/Mab (sample loaded in Example 3); assay: difference of dynamic binding capacity, after SIP minus control without SIP
[2] = molecular target: Fab/Mab (sample loaded in Example 3); assay: 10% breakthrough dynamic binding capacity, ligand on agarose column, residence time 6 min, no SIP
[3] = molecular target: Fab/Mab (sample loaded in Example 3); assay: 10% breakthrough dynamic binding capacity, ligand on agarose column, after 24 h in 0.1 M peracetic acid
[4] = molecular target: Fab/Mab (sample loaded in Example 3); assay: 10% breakthrough dynamic binding capacity, MabSelect Xtra column, residence time 6 min, no SIP
[5] = molecular target: Fab/Mab (sample loaded in Example 3); assay: difference of dynamic binding capacity, after SIP minus control without SIP, MabSelect
[6] = molecular target: Fab/Mab (sample loaded in Example 3); assay: difference of dynamic binding capacity, after SIP minus control without SIP, MabSelect Xtra
[7] = molecular target: Fab/Mab (sample loaded in Example 3); assay: 10% breakthrough dynamic binding capacity, MabSelect Xtra column, after 24 h in 0.1 M peracetic acid
[8] = molecular target: Fab/Mab (sample loaded in Example 3); assay: 10% breakthrough dynamic binding capacity, MabSelect column, after 24 h in 0.1 M peracetic acid
[9] = molecular target: Fab/Mab (sample loaded in Example 3); assay: 10% breakthrough dynamic binding capacity, MabSelect column, residence time 6 min, no SIP
[10] = molecular target: Fab (sample of Example 4); assay: static binding capacity in filter plate, after 24 h in 100 mM peracetic acid, 10 min incubation with Fab, relative to PBS control
[11] = molecular target: Fab (sample of Example 4); assay: static binding capacity in filter plate, after 4 h in 500 mM peracetic acid, 90 min incubation with Fab, relative to PBS control
[12] = molecular target: Fab (sample of Example 4); assay: static binding capacity in filter plate, after 24 h in 500 mM peracetic acid, 90 min incubation with Fab, relative to PBS control
[13] = molecular target: Fab (sample of Example 4); assay: static binding capacity in filter plate, after 4 h in 5% H2O2, 90 min incubation with Fab, relative to PBS control
[14] = molecular target: Fab (sample of Example 4); assay: static binding capacity in filter plate, after 4 h in 100 mM peracetic acid, 10 min incubation with Fab, relative to PBS control
[15] = molecular target: Fab (sample of Example 4); assay: static binding capacity in filter plate, after 24 h in 5% H2O2, 10 min incubation with Fab, relative to PBS control
[16] = molecular target: Fab (sample of Example 4); assay: static binding capacity in filter plate, after 24 h in 500 mM peracetic acid, 10 min incubation with Fab, relative to PBS control
[17] = molecular target: Fab (sample of Example 4); assay: static binding capacity in filter plate, after 4 h in 100 mM peracetic acid, 90 min incubation with Fab, relative to PBS control
[18] = molecular target: Fab/Mab (sample loaded in Example 3); assay: 10% breakthrough dynamic binding capacity, ligand on agarose column, after 24 h in 0.1 M peracetic acid (ligand degraded by the treatment)

recombinant Protein L (rPrL), sequence (chain): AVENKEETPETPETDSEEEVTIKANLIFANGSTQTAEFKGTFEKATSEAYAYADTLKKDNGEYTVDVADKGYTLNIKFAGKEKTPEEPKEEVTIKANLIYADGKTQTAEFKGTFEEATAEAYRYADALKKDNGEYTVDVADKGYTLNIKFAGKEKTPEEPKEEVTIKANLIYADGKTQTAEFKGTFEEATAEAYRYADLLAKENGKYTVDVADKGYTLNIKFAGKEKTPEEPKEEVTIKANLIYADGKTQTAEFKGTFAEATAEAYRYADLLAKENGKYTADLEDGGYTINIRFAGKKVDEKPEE

ΔDBC [1]: 0 g/L
DBC control, no SIP [2]: 63 g/L
DBC after SIP [3]: 63 g/L
Substance: MabSelect SuRe LX ligand (multimer of Protein Z variant with substituted asparagines) (designed binder)

ΔDBC [1]: 1 g/L
DBC control, no SIP [2]: 50 g/L
DBC after SIP [3]: 51 g/L
Substance: MabSelect SuRe ligand (multimer of Protein Z variant with substituted asparagines) (designed binder)

Substance: recombinant Protein A (rPrA) (from UniProt P38507 42-327)
DBC control, no SIP [4]: 59 g/L
ΔDBC [5]: -1 g/L
ΔDBC [6]: 1 g/L
DBC after SIP [7]: 60 g/L
DBC after SIP [8]: 51 g/L
DBC control, no SIP [9]: 52 g/L

Relative remaining SBC (%) [10]: 107%
Relative remaining SBC (%) [11]: 103%
ΔDBC [1]: -1 g/L
Relative remaining SBC (%) [12]: 102%
DBC control, no SIP [2]: 30 g/L
Relative remaining SBC (%) [13]: 102%
Relative remaining SBC (%) [14]: 109%
Relative remaining SBC (%) [15]: 102%
DBC after SIP [3]: 29 g/L
Relative remaining SBC (%) [16]: 97%
Relative remaining SBC (%) [17]: 101%
Substance: recombinant Protein L (rPrL)

ΔDBC [1]: -20 g/L
DBC after SIP [18]: 0 g/L
DBC control, no SIP [2]: 20 g/L
Substance: single-chain camelid antibody against IgG kappa chains (KappaSelect ligand) (VHH)
